1 molecule from paper PMC8894357 (2022) can be followed below.

As usually defined, the Kd is the free concentration of one partner at which half of the binding sites on the other are occupied at equilibrium, for simple one-to-one binding.

This experiment has as its target T1, Human β-catenin, GST tagged (human, UniProt P35222 1-781).
T1 chain: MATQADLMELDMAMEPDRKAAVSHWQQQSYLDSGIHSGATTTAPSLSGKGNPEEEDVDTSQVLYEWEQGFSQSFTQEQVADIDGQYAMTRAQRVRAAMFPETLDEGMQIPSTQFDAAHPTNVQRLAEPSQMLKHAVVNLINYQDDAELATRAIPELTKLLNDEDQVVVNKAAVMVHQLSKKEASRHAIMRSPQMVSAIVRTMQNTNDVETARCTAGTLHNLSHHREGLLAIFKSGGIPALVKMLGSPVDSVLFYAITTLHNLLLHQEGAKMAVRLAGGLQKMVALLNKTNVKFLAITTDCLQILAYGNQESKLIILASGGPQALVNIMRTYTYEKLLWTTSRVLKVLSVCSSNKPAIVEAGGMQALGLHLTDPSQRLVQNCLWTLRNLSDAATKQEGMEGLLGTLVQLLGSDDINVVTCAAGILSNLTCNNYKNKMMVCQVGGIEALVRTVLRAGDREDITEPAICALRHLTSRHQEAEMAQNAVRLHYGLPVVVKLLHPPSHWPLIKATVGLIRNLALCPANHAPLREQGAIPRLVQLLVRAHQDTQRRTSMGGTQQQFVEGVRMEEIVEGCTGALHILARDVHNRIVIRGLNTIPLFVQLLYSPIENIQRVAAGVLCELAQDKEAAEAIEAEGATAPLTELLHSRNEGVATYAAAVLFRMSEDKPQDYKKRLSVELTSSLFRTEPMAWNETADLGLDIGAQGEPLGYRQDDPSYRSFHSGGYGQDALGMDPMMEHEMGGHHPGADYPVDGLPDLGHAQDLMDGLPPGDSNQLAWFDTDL

B1: αE-catenin, monomeric fraction (mouse, full length, His(6x) tagged) (natural protein)
chain: MTAVHAGNINFKWDPKSLEIRTLAVERLLEPLVTQVTTLVNTNSKGPSNKKRGRSKKAHVLAASVEQATENFLEKGDKIAKESQFLKEELVVAVEDVRKQGDLMKSAAGEFADDPCSSVKRGNMVRAARALLSAVTRLLILADMADVYKLLVQLKVVEDGILKLRNAGNEQDLGIQYKALKPEVDKLNIMAAKRQQELKDVGNRDQMAAARGILQKNVPILYTASQACLQHPDVAAYKANRDLIYKQLQQAVTGISNAAQATASDDAAQHQGGSGGELAYALNNFDKQIIVDPLSFSEERFRPSLEERLESIISGAALMADSSCTRDDRRERIVAECNAVRQALQDLLSEYMGNAGRKERSDALNSAIDKMTKKTRDLRRQLRKAVMDHVSDSFLETNVPLLVLIEAAKNGNEKEVKEYAQVFREHANKLIEVANLACSISNNEEGVKLVRMSASQLEALCPQVINAALALAAKPQSKLAQENMDLFKEQWEKQVRVLTDAVDDITSIDDFLAVSENHILEDVNKCVIALQEKDVDGLDRTAGAIRGRAARVIHVVTSEMDNYEPGVYTEKVLEATKLLSNTVMPRFTEQVEAAVEALSSDPAQPMDENEFIDASRLVYDGIRDIRKAVLMIRTPEELDDSDFETEDFDVRSRTSVQTEDDQLIAGQSARAIMAQLPQEQKAKIAEQVASFQEEKSKLDAEVSKWDDSGNDIIVLAKQMCMIMMEMTDFTRGKGPLKNTSDVISAAKKIAEAGSRMDKLGRTIADHCPDSACKQDLLAYLQRIALYCHQLNICSKVKAEVQNLGGELVVSGVDSAMSLIQAAKNLMNAVVQTVKASYVASTKYQKSQGMASLNLPAVSWKMKAPEKKPLVKREKQDETQTKIKRASQKKHVNPVQALSEFKAMDSI
Molecule B1 had a Kd of 35 nM.
